Data published in article PMC6883073, “Unraveling Determinants of Affinity Enhancement in Dimeric Aptamers for a Dimeric Protein”.

Columns and labels:
VEGF-165 [1] = target: T1, VEGF-165 (UniProt P15692-4 27-191); assay: EMSA; PBS + 0.005% Tween 20, pH 7.4 (+50 mM KCl for aptamer B); 2.5 nM aptamer heated at 90 C and cooled, 1 h incubation (temperature not stated, RT?); 7.5% PAGE in 0.5x TB pH 8.3 at 4 C; conditions: protein: recombinant; tags: His-tag; chain copies: 2; label: 5' fluorescein
VEGF-121 = VEGF-121 (UniProt P15692-9 27-147); assay: EMSA; up to 333.3 nM VEGF-121; PBS + 0.005% Tween 20, pH 7.4 (+50 mM KCl for aptamer B); 2.5 nM aptamer heated at 90 C and cooled, 1 h incubation (temperature not stated, RT?); 7.5% PAGE in 0.5x TB pH 8.3 at 4 C; conditions: protein: recombinant; tags: His-tag; chain copies: 2; label: 5' fluorescein
VEGF-165 [2] = target: T1, VEGF-165; assay: EMSA; 10 nM VEGF-165; PBS + 0.005% Tween 20, pH 7.4 (+50 mM KCl for aptamer B); 2.5 nM aptamer heated at 90 C and cooled, 1 h incubation (temperature not stated, RT?); 7.5% PAGE in 0.5x TB pH 8.3 at 4 C; conditions: protein: recombinant; tags: His-tag; chain copies: 2; label: 5' fluorescein
VEGF-165 [3] = target: T1, VEGF-165; assay: EMSA; middle + top bands combined; PBS + 0.005% Tween 20, pH 7.4 (+50 mM KCl for aptamer B); 2.5 nM aptamer heated at 90 C and cooled, 1 h incubation (temperature not stated, RT?); 7.5% PAGE in 0.5x TB pH 8.3 at 4 C; conditions: protein: recombinant; tags: His-tag; chain copies: 2; label: 5' fluorescein
VEGF-165 [4] = target: T1, VEGF-165; assay: EMSA; top band only (1 aptamer:2 protein), apparent; PBS + 0.005% Tween 20, pH 7.4 (+50 mM KCl for aptamer B); 2.5 nM aptamer heated at 90 C and cooled, 1 h incubation (temperature not stated, RT?); 7.5% PAGE in 0.5x TB pH 8.3 at 4 C; conditions: protein: recombinant; tags: His-tag; chain copies: 2; label: 5' fluorescein
VEGF-165 [5] = target: T1, VEGF-165; assay: competition; displaces fA; 10 nM VEGF-165; PBS + 0.005% Tween 20, pH 7.4 (+50 mM KCl for aptamer B); 2.5 nM aptamer heated at 90 C and cooled, 1 h incubation (temperature not stated, RT?); 7.5% PAGE in 0.5x TB pH 8.3 at 4 C; conditions: protein: recombinant; tags: His-tag; chain copies: 2
VEGF-165 [6] = target: T1, VEGF-165; assay: competition; displaces fC; 50 nM VEGF-165; PBS + 0.005% Tween 20, pH 7.4 (+50 mM KCl for aptamer B); 2.5 nM aptamer heated at 90 C and cooled, 1 h incubation (temperature not stated, RT?); 7.5% PAGE in 0.5x TB pH 8.3 at 4 C; conditions: protein: recombinant; tags: His-tag; chain copies: 2
VEGF-165 [7] = target: T1, VEGF-165; assay: EMSA; 10 nM VEGF-165; PBS + 0.005% Tween 20, pH 7.4 (+50 mM KCl for aptamer B); 2.5 nM aptamer heated at 90 C and cooled, 1 h incubation (temperature not stated, RT?); 7.5% PAGE in 0.5x TB pH 8.3 at 4 C; conditions: protein: recombinant; tags: His-tag; chain copies: 2; label: 5' fluorescein; remark: listed apart in the source
VEGF-165 [8] = target: T1, VEGF-165; assay: EMSA; curve superimposed on AT10C; PBS + 0.005% Tween 20, pH 7.4 (+50 mM KCl for aptamer B); 2.5 nM aptamer heated at 90 C and cooled, 1 h incubation (temperature not stated, RT?); 7.5% PAGE in 0.5x TB pH 8.3 at 4 C; conditions: protein: recombinant; tags: His-tag; chain copies: 2; label: 5' fluorescein

T1 sequence (P15692 other isoform, or with tags, fused parts or gaps): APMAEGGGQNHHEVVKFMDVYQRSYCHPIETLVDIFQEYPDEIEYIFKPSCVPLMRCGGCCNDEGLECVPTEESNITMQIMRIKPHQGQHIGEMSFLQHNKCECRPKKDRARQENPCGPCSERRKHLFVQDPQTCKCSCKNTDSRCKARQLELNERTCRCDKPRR
Chain of VEGF-121 (P15692 other isoform, or with tags, fused parts or gaps): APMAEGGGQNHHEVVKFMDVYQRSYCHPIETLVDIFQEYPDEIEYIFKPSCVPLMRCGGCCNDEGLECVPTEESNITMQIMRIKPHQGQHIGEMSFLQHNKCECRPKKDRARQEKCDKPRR

GCCCGTCTTCCAGACAAGAGTGCAGGGC (structured_DNA) [fA (+5'GC+3'C)]
Kd (VEGF-165 [1]): 9.9 ± 1.3 nM
binding result (VEGF-121): no binding

B1: AT60A (structured_DNA)
DNA: GCCCGTCTTCCAGACAAGAGTGCAGGGCTTTTTTTTTTTTTTTTTTTTTTTTTTTTTTTTTTTTTTTTTTTTTTTTTTTTTTTTTTTTGCCCGTCTTCCAGACAAGAGTGCAGGGC
Kd (VEGF-165 [1]): 7 ± 1.5 nM

B2: CT60C (structured_DNA)
DNA: CAATTGGGCCCGTCCGTATGGTGGGTTTTTTTTTTTTTTTTTTTTTTTTTTTTTTTTTTTTTTTTTTTTTTTTTTTTTTTTTTTTTCAATTGGGCCCGTCCGTATGGTGGGT
Kd (VEGF-165 [1]): 22.4 ± 1 nM

B3: CT0C (structured_DNA)
DNA: CAATTGGGCCCGTCCGTATGGTGGGTCAATTGGGCCCGTCCGTATGGTGGGT
binding signal (VEGF-165 [2]): ~0.35 fraction bound
Kd (VEGF-165 [3]): 13.6 ± 2.7 nM
Kd (VEGF-165 [4]): 74.8 ± 3.5 nM

B4: CT10C (structured_DNA)
DNA: CAATTGGGCCCGTCCGTATGGTGGGTTTTTTTTTTTCAATTGGGCCCGTCCGTATGGTGGGT
binding signal (VEGF-165 [2]): ~0.35 fraction bound

B5: CT20C (structured_DNA)
DNA: CAATTGGGCCCGTCCGTATGGTGGGTTTTTTTTTTTTTTTTTTTTTCAATTGGGCCCGTCCGTATGGTGGGT
binding signal (VEGF-165 [2]): ~0.35 fraction bound

B6: CT30C (structured_DNA)
DNA: CAATTGGGCCCGTCCGTATGGTGGGTTTTTTTTTTTTTTTTTTTTTTTTTTTTTTTCAATTGGGCCCGTCCGTATGGTGGGT
binding signal (VEGF-165 [2]): ~0.35 fraction bound

CAATTGGGCCCGTCCGTATGGTGGGT (structured_DNA) [fC (SL2-B)]
Kd (VEGF-165 [1]): 37.9 ± 14 nM

B7: nfAT100 (structured_DNA)
DNA: GCCCGTCTTCCAGACAAGAGTGCAGGGCTTTTTTTTTTTTTTTTTTTTTTTTTTTTTTTTTTTTTTTTTTTTTTTTTTTTTTTTTTTTTTTTTTTTTTTTTTTTTTTTTTTTTTTTTTTTTTTTTTTT
binding result (VEGF-165 [5]): binds

B8: nfCT100 (structured_DNA)
DNA: CAATTGGGCCCGTCCGTATGGTGGGTTTTTTTTTTTTTTTTTTTTTTTTTTTTTTTTTTTTTTTTTTTTTTTTTTTTTTTTTTTTTTTTTTTTTTTTTTTTTTTTTTTTTTTTTTTTTTTTTT
binding result (VEGF-165 [6]): binds

B9: AT0C (structured_DNA)
DNA: GCCCGTCTTCCAGACAAGAGTGCAGGGCCAATTGGGCCCGTCCGTATGGTGGGT
binding result (VEGF-165 [7]): binds

B10: AT20C (structured_DNA)
DNA: GCCCGTCTTCCAGACAAGAGTGCAGGGCTTTTTTTTTTTTTTTTTTTTCAATTGGGCCCGTCCGTATGGTGGGT
binding result (VEGF-165 [7]): binds

B11: AT30C (structured_DNA)
DNA: GCCCGTCTTCCAGACAAGAGTGCAGGGCTTTTTTTTTTTTTTTTTTTTTTTTTTTTTTCAATTGGGCCCGTCCGTATGGTGGGT
binding result (VEGF-165 [7]): binds

B12: AT60C (structured_DNA)
DNA: GCCCGTCTTCCAGACAAGAGTGCAGGGCTTTTTTTTTTTTTTTTTTTTTTTTTTTTTTTTTTTTTTTTTTTTTTTTTTTTTTTTTTTTCAATTGGGCCCGTCCGTATGGTGGGT
binding result (VEGF-165 [8]): binds

B13: CT0A (structured_DNA)
DNA: CAATTGGGCCCGTCCGTATGGTGGGTGCCCGTCTTCCAGACAAGAGTGCAGGGC
binding result (VEGF-165 [7]): binds

B14: CT10A (structured_DNA)
DNA: CAATTGGGCCCGTCCGTATGGTGGGTTTTTTTTTTTGCCCGTCTTCCAGACAAGAGTGCAGGGC
binding result (VEGF-165 [7]): binds

B15: CT20A (structured_DNA)
DNA: CAATTGGGCCCGTCCGTATGGTGGGTTTTTTTTTTTTTTTTTTTTTGCCCGTCTTCCAGACAAGAGTGCAGGGC
binding result (VEGF-165 [7]): binds

B16: CT30A (structured_DNA)
DNA: CAATTGGGCCCGTCCGTATGGTGGGTTTTTTTTTTTTTTTTTTTTTTTTTTTTTTTGCCCGTCTTCCAGACAAGAGTGCAGGGC
binding result (VEGF-165 [7]): binds

B17: AT10C (structured_DNA)
DNA: GCCCGTCTTCCAGACAAGAGTGCAGGGCTTTTTTTTTTCAATTGGGCCCGTCCGTATGGTGGGT
Kd (VEGF-165 [3]): 12.1 ± 1.9 nM
Kd (VEGF-165 [4]): 87.3 ± 4.9 nM

B18: AT20A (structured_DNA)
DNA: GCCCGTCTTCCAGACAAGAGTGCAGGGCTTTTTTTTTTTTTTTTTTTTGCCCGTCTTCCAGACAAGAGTGCAGGGC
Kd (VEGF-165 [3]): 5.5 ± 0.9 nM
Kd (VEGF-165 [4]): 145 ± 11.6 nM
